Source: patent US20140274782A1, “AFFINITY REAGENTS AND METHODS FOR DETECTION, PURIFICATION, AND PROTEOMIC ANALYSIS OF METHYLATED PROTEINS” (The Board of Trustees of the Leland Stanford Junior …, priority 2013, published 2014)
Several values for one entry are separate records, joined by “and”; a condition that tells them apart may be missing. Equal values may be shown once.

Tests used:
G9a and GLP = target: T1, G9a and GLP (Homo sapiens, UniProt Q96KQ7+Q9H9B1); assay: Triple SILAC pull-down after UNC0638 treatment of 293T cells, DMSO/UNC0638 ratio of protein captured by 3×MBT; assay type: cell-based; details: for Relative to UNC0638 UNC Heavy: UNC0638 in heavy SILAC media; for Relative to UNC0638 UNC Light: UNC0638 in light SILAC media; for Relative to UNC0638 Average: average of UNC Light and UNC Heavy experiments;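 as to all read-outs here: mass spectrometry (Q-Exactive) SILAC quantitation, DMSO/UNC0638 ratio computed after subtracting 3×MBTD355N mutant pull-down background, only proteins with at least twofold 3×MBT over mutant signal considered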
T1 construct: endogenous in cells; host or cells: HEK 293T
T1 sequence (Q96KQ7 2-1210 limits assumed): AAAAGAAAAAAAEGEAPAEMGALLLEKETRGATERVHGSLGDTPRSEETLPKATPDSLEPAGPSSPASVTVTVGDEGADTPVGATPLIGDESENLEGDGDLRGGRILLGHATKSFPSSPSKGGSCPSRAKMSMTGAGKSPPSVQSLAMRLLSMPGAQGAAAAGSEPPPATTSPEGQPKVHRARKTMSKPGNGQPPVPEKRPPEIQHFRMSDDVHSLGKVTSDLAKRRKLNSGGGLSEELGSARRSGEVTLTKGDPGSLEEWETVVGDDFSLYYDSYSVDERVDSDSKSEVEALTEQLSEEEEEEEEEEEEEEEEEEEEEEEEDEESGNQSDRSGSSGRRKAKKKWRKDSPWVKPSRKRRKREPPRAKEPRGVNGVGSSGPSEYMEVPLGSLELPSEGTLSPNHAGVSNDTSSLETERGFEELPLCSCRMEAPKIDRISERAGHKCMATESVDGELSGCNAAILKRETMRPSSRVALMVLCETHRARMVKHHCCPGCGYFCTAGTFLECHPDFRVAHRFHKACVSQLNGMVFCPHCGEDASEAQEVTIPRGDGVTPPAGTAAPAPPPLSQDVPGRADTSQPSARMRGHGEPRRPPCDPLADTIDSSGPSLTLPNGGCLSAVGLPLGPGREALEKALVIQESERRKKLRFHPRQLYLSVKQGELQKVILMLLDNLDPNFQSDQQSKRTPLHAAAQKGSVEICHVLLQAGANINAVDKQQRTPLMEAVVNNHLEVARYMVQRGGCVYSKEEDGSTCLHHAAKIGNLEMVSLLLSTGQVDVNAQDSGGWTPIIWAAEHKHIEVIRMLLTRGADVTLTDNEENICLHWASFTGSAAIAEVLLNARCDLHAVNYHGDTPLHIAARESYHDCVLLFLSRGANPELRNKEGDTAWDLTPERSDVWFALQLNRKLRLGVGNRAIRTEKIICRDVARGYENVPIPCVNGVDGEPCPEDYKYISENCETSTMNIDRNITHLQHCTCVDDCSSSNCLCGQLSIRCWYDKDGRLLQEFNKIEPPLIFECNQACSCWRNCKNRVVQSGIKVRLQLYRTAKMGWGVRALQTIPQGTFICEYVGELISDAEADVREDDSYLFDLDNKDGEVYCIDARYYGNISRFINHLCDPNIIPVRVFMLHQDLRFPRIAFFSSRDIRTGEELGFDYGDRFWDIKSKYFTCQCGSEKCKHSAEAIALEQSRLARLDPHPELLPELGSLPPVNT
T1 sequence (Q9H9B1 2-1298 limits assumed): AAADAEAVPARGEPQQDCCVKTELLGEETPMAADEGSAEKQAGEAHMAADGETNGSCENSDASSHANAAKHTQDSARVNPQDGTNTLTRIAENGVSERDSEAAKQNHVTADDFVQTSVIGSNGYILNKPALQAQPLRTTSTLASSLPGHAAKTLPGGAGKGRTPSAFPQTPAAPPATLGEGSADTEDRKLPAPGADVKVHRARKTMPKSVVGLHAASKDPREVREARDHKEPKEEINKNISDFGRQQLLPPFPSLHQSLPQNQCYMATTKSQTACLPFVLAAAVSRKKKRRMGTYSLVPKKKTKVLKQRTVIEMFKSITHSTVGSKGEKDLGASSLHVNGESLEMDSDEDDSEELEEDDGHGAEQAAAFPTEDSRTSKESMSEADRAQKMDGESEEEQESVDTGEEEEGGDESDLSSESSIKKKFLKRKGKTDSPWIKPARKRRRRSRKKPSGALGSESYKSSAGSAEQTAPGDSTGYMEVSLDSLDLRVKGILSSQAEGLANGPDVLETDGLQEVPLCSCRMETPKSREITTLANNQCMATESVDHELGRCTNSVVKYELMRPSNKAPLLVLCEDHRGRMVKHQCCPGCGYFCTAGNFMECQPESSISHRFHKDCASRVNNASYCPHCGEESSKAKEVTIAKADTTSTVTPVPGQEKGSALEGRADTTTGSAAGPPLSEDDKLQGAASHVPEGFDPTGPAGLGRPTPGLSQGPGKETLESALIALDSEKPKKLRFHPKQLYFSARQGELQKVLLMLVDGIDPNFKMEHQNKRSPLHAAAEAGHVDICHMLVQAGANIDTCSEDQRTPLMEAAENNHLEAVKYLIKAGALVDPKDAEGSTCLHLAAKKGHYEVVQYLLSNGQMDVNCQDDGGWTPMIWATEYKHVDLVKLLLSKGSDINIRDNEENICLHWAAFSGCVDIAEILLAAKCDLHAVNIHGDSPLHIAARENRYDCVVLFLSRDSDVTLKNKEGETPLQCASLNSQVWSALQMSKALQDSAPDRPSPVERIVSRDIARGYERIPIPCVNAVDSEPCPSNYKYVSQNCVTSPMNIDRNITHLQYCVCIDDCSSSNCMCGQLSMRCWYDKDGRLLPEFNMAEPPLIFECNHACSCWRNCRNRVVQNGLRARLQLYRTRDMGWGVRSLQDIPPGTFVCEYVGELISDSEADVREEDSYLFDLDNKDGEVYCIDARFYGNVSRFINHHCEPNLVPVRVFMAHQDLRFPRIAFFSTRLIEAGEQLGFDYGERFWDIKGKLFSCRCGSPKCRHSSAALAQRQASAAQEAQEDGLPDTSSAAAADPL

3×MBT domain of L3MBTL1 = assay: Triple SILAC pull-down, 3xMBT/3xMBTD355N ratio (cytoplasmic, nuclear and chromatin fractions of 293T cells); assay type: binding, human; details: for 3xMBT/D355N UNC Heavy: experiment with UNC0638 in heavy SILAC media; for 3xMBT/D355N UNC Light: experiment with UNC0638 in light SILAC media;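 as to all read-outs here: proteins quantified with MaxQuant, requiring at least two unique peptides and quantification in both label directions, normalized to the mean of proteins from a digested loading control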
[1] = SILAC ratio DMSO relative to UNC0638, pull-down with 3xMBT, all values in log base 2
[2] = SILAC ratio 3xMBT vs 3xMBTD355N pull-down, 293T cells, all values in log base 2
[3] = SILAC ratio DMSO/UNC0638 of protein pulled down with 3xMBT
[4] = SILAC ratio, pull-down 3xMBT vs 3xMBTD355N

| Substance | Relative to UNC0638 UNC Heavy (G9a and GLP; [1]) [log base 2] | Relative to UNC0638 UNC Light (G9a and GLP; [1]) [log base 2] | Relative to UNC0638 Average (G9a and GLP; all values in log base 2) [log base 2] | Relative to UNC0638 UNC Heavy (G9a and GLP; [3]) | Relative to UNC0638 UNC Light (G9a and GLP; [3]) [log base 2] | Relative to UNC0638 Average (G9a and GLP) | Protein Ratios DMSO/UNC0638 (G9a and GLP; SILAC ratio of protein captured by 3xMBT, 293T cells treated 24 hours with UNC0638 at 2.5 μM or DMSO) | Candidate G9a/GLP target (G9a and GLP; reduced association with 3xMBT after UNC0638 treatment) | 3xMBT/D355N UNC Heavy (3×MBT domain of L3MBTL1; [2]) [log base 2] | 3xMBT/D355N UNC Light (3×MBT domain of L3MBTL1; [2]) [log base 2] | 3xMBT/D355N UNC Heavy (3×MBT domain of L3MBTL1; [4]) | 3xMBT/D355N UNC Light (3×MBT domain of L3MBTL1; [4]) | Protein Ratios 3xMBT/D355N (3×MBT domain of L3MBTL1; SILAC ratio, pull-down by 3xMBT vs 3xMBTD355N, 293T cells) |
| --- | --- | --- | --- | --- | --- | --- | --- | --- | --- | --- | --- | --- | --- |
| FBXO22 | 0.58 | −0.59 | 0.00 |  |  |  |  |  | 3.56 | 0.77 |  |  |  |
| FAM98A |  |  |  | 0.57 log base 2 | 0.19 | 0.38 log base 2 |  |  |  |  | 2.99 log base 2 | 4.03 log base 2 |  |
| GRWD1 |  |  |  | 0.24 log base 2 | 0.09 | 0.17 log base 2 |  |  |  |  | 2.87 log base 2 | 2.55 log base 2 |  |
| PPP1CA | 1.15 | −1.83 | −0.34 |  |  |  |  |  | 1.51 | 0.12 |  |  |  |
| HNRNPK |  |  |  | 0.17 log base 2 and 0.13 log base 2 | 0.10 | 0.13 log base 2 and 0.11 log base 2 |  |  |  |  | 3.13 log base 2 and 2.55 log base 2 | 3.64 log base 2 and 3.36 log base 2 |  |
| G3BP1 [Hit G3BP1] |  |  |  | 0.23 log base 2 | 0.15 | 0.19 log base 2 |  |  |  |  | 2.02 log base 2 | 2.72 log base 2 |  |
| MCTS1 |  |  |  | 0.04 log base 2 | 0.20 | 0.12 log base 2 |  |  |  |  | 2.76 log base 2 | 2.56 log base 2 |  |
| HNRNPU |  |  |  | 0.22 log base 2 | 0.28 | 0.25 log base 2 |  |  |  |  | 2.16 log base 2 | 2.39 log base 2 |  |
| MPG |  |  |  | 0.52 log base 2 | −0.04 | 0.24 log base 2 |  |  |  |  | 1.39 log base 2 | 1.87 log base 2 |  |
| PTBP1 |  |  |  | 0.33 log base 2 | 0.25 | 0.29 log base 2 |  |  |  |  | 2.61 log base 2 | 3.23 log base 2 |  |
| PRPF8 |  |  |  | 0.11 log base 2 | 0.17 | 0.14 log base 2 |  |  |  |  | 2.51 log base 2 | 2.50 log base 2 |  |
| CSDA |  |  |  | 0.30 log base 2 | 0.73 | 0.52 log base 2 |  | ✓ |  |  | 3.85 log base 2 | 3.10 log base 2 |  |

Continued, in another order:

| Relative to UNC0638 UNC Heavy (G9a and GLP; [1]) [log base 2] | Relative to UNC0638 UNC Light (G9a and GLP; [1]) [log base 2] | Relative to UNC0638 Average (G9a and GLP; all values in log base 2) [log base 2] | Relative to UNC0638 UNC Heavy (G9a and GLP; [3]) | Relative to UNC0638 UNC Light (G9a and GLP; [3]) [log base 2] | Relative to UNC0638 Average (G9a and GLP) | Protein Ratios DMSO/UNC0638 (G9a and GLP; SILAC ratio of protein captured by 3xMBT, 293T cells treated 24 hours with UNC0638 at 2.5 μM or DMSO) | Candidate G9a/GLP target (G9a and GLP; reduced association with 3xMBT after UNC0638 treatment) | Substance | 3xMBT/D355N UNC Heavy (3×MBT domain of L3MBTL1; [2]) [log base 2] | 3xMBT/D355N UNC Light (3×MBT domain of L3MBTL1; [2]) [log base 2] | 3xMBT/D355N UNC Heavy (3×MBT domain of L3MBTL1; [4]) | 3xMBT/D355N UNC Light (3×MBT domain of L3MBTL1; [4]) | Protein Ratios 3xMBT/D355N (3×MBT domain of L3MBTL1; SILAC ratio, pull-down by 3xMBT vs 3xMBTD355N, 293T cells) |
| --- | --- | --- | --- | --- | --- | --- | --- | --- | --- | --- | --- | --- | --- |
|  |  |  | 0.50 log base 2 | 0.15 | 0.32 log base 2 |  |  | CTBP2 |  |  | 1.97 log base 2 | 1.74 log base 2 |  |
|  |  |  |  |  |  | 1.3 |  | SWI/SNF-related matrix-associated actin-dependent regulator of chromatin subfamily A member 5 |  |  |  |  | 5.8 |
| 0.21 | −0.05 | 0.08 |  |  |  |  |  | SEC24C | 2.58 | 2.17 |  |  |  |
| 0.32 | −0.12 | 0.10 |  |  |  |  |  | RDBP | 2.37 | 2.82 |  |  |  |
|  |  |  | 0.42 log base 2 | −0.18 | 0.12 log base 2 |  |  | TOP2A |  |  | 2.56 log base 2 | 2.96 log base 2 |  |
|  |  |  | 0.18 log base 2 | 0.21 | 0.20 log base 2 |  |  | TARDBP |  |  | 2.44 log base 2 | 2.40 log base 2 |  |
|  |  |  |  | 0.14 | 0.14 log base 2 |  |  | DDX21 |  |  | 0.55 log base 2 | 1.00 log base 2 |  |
|  |  |  | 0.26 log base 2 | 0.27 | 0.27 log base 2 |  |  | CAMK2D |  |  | 1.96 log base 2 | 2.82 log base 2 |  |
|  |  |  | 0.19 log base 2 | 0.07 | 0.13 log base 2 |  |  | CFL1 |  |  | 2.43 log base 2 | 3.06 log base 2 |  |
|  |  |  | 0.64 log base 2 | −0.05 | 0.30 log base 2 |  |  | THOC2 |  |  | 2.50 log base 2 | 2.01 log base 2 |  |
